According to PMC1952217 (The EMBO Journal, 2007):

How the values were obtained:
Experiment in all cases: FRET or BRET
[1] = molecular target: T1, Smc1 tagged at its C-terminus with CFP or YFP (S. cerevisiae, UniProt P32908 1-1225)
T1 sequence: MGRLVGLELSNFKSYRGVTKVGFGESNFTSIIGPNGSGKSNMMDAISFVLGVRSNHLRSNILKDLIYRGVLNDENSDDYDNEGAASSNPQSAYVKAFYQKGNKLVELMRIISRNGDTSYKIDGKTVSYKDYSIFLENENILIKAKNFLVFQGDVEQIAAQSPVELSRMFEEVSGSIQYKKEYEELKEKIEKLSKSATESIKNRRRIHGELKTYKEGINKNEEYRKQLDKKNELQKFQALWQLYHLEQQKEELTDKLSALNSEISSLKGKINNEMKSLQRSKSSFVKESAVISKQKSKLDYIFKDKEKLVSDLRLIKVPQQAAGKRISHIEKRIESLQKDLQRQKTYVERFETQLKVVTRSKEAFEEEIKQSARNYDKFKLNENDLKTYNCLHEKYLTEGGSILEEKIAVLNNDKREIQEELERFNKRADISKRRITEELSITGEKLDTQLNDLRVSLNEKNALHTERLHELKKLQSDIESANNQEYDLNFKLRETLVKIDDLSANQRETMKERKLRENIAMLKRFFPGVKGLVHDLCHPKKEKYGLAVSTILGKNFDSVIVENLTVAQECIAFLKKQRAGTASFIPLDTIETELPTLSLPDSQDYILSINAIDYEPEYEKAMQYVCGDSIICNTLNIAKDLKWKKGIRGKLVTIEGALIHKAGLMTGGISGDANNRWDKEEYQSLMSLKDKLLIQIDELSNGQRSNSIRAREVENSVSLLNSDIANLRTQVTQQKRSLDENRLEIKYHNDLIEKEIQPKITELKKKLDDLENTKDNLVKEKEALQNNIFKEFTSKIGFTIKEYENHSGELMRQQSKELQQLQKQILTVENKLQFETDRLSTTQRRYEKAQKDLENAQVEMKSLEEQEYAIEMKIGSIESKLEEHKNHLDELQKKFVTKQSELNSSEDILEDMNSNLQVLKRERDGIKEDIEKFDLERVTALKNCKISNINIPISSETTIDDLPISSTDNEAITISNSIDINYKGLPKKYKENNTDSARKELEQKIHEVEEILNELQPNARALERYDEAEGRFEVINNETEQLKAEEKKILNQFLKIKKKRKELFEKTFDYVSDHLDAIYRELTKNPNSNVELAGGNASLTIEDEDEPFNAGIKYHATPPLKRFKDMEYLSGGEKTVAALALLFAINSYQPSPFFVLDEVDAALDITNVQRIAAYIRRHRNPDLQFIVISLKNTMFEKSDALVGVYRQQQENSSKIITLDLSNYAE

[2] = molecular target: T2, Smc3 tagged at its C-terminus with CFP or YFP (S. cerevisiae, UniProt P47037 1-1230)
T2 sequence: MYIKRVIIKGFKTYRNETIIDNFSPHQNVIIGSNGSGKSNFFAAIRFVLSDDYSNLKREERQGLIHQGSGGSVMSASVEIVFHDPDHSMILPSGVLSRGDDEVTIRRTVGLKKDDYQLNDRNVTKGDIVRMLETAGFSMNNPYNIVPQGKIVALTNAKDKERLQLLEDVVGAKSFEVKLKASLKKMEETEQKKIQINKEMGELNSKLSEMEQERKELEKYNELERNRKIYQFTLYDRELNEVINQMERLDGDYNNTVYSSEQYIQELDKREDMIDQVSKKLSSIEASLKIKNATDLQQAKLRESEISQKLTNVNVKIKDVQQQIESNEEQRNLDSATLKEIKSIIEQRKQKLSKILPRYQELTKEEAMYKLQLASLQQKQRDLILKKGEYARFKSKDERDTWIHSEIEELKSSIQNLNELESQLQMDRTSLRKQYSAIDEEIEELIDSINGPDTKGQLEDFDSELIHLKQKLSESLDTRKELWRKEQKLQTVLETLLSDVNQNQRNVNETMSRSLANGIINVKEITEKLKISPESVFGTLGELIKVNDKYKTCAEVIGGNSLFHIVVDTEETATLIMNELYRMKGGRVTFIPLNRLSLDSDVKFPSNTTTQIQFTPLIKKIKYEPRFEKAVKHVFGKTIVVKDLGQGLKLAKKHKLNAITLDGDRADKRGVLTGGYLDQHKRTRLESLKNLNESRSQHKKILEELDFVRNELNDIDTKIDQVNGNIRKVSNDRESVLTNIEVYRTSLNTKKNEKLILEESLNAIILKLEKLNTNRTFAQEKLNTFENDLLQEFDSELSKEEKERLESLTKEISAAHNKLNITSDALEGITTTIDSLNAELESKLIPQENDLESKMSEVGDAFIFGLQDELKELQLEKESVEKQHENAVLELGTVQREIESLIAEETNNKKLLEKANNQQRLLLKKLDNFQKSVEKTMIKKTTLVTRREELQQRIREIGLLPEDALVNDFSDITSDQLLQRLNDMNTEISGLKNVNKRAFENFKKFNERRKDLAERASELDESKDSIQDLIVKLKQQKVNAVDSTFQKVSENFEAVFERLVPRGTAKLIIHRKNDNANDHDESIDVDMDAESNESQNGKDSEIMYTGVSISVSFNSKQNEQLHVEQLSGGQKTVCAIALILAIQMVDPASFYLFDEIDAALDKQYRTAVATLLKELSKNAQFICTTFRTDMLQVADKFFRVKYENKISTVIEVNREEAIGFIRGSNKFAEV

[3] = molecular target: T3, Scc1 with CFP or YFP at its C-terminus (S. cerevisiae, UniProt Q12158 1-566)
T3 sequence: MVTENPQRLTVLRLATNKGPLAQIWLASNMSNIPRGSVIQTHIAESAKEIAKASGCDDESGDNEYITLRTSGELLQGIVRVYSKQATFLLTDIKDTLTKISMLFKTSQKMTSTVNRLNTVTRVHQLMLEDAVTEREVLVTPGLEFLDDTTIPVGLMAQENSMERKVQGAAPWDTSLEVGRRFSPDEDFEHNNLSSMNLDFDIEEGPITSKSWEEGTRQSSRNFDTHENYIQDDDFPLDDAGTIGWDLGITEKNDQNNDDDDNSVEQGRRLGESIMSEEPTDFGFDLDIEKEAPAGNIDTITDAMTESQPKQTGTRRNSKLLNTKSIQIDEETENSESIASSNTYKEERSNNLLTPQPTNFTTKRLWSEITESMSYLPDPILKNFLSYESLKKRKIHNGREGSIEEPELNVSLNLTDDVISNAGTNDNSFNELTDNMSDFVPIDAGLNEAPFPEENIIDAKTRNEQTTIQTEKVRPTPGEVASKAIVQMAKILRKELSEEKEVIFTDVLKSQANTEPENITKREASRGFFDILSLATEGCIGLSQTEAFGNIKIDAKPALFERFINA

- FRETR [1]: 1.35
- FRETR [2]: 1.37
- FRETR [3]: 1.4
B1: Scc3 with CFP or YFP at its C-terminus (natural protein)
chain: MTAVRRSTRIRTKSQVIEEDYDDEQNTSAQHVESDKITAKTQHEEEEEQDTGESEESSSEDDYEDQDDDDYVDTATAKRKSRKRKPKSASNTSSKRQKKKPTSAQKSAVSHAPAYHRSKKDQDQYLEIAKDFQPTELFDILSTSEDVSIEELLREWLETYSENRDKFLQEFINLLLNCCGSVARVEDHDVHSNESSNETIGEIQLLFQRQKLHEFYLLISKENKKRKNFKMGPLYQNFAEFMTKLLEVANDLQLLYVESDEDDTQIVTGNLVLDLLTWLSSFSVCKIRCFRYISTLTLYLFQDYLTQQAVNLEKNYLAKLSKQLSLEEKKKRPNNKTLEKLESTIAETQGSKVVIDSIIDNIVKLCFVHRYKDVSDLIRSESMLHLSIWIKNYPEYFLKVTFLKYFGWLLSDNSVSVRLQVTKILPHLIIQNHNSKSTDNSAIRQVFERFKTKILEVAIRDVNLDVRIHSIQVLTEASSLGYLDDSEILIISSLMFDEEFDPFKTSSFNKRSKFLSTVAKFLARVIKEKFDEFIKTHEDLPKEVDGLEVGPVVQVGIFIKILNDSLIYHLKDCAEVDSRTKIRMLTQAAEFLSPYISTHLKTICNLLISDTESNELIQKLQNSANNNSDDEDVDDEELDITPLFPIDRNSTILYLNVFHGLCAGANNPKIQTKDSVKEIVLPLFYDLLNAASIESADILCPLLESFITFSLDDWISIGYETELKKITDKTIKAFMDSTIGNSKVDMKYDIFAKFIHHIHHFEKKELQEKFLNQIATLKIHLKKFLQEKMDPNNSRDDYKDLTCSLYELYINKLTILGRDYPIEVDEELLQLFLNNFVSRIPIMFQDFDDSTAQEINFKMLVLLATWNLEKWREIIEKVRDYENSISKDLRSVWKPIAAIIGRLNTLVISLAATNETFENINSLFYLKWSACTSLMDIIVAIKIFELKLPADATTWRYSMSEQFPFYLHDNASKVLLKIFLYLESLFAKQVDVQLERVADEDANLNDLPETGFFENIETEFLLFTVKLKGLMKLNILDERFASRVALNKEKLGPLFKKIVDDTIMENPEPNKKNIQKAKSNQTQREKAPLQPNSERETDHANTENNDPDIPMTIDLEPIEESSQNNSELAPIEEHPTVVDAIDNSDEITQD
